Legend:
[1] = target: T1, human IL-18BP (recombinant, construct not stated) (UniProt O95998 31-194); test: blocking ELISA
T1 chain: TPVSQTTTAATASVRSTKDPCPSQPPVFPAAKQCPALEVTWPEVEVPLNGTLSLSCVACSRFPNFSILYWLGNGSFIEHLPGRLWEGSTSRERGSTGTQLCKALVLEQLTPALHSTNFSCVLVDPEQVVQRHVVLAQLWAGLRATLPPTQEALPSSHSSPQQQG

Cyno IL18-IL18BP = Cyno IL18-IL18BP (cynomolgus monkey); test: blocking ELISA

B1: ADI-66692 (antibody, V domains shown)
VH: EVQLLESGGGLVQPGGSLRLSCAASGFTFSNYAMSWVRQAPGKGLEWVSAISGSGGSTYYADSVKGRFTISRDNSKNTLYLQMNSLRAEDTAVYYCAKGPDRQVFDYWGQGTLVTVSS
VL: DIQMTQSPSSVSASVGDRVTITCRASQGIDSWLAWYQQKPGKAPKLLIYAASSLQSGVPSRFSGSGSGTDFTLTISSLQPEDFATYYCQHAYSFPYTFGGGTKVEIK
IC50 [1]: 0.278 µg/mL

B2: ADI-66716 (antibody, V domains shown)
VH: QLQLQESGPGLVKPSETLSLTCTVSGGSISSSDYYWGWIRQPPGKGLEWIGSIYYSGSTYYNPSLKSRVTISVDTSKNQFSLKLSSVTAADTAVYYCARGPHRQVFDYWGQGTLVTVSS
VL: DIQMTQSPSSVSASVGDRVTITCRASQGISSWLAWYQQKPGKAPKLLIYAASSLQSGVPSRFSGSGSGTDFTLTISSLQPEDFATYYCQQGSSFPYTFGGGTKVEIK
IC50 [1]: 0.208 µg/mL
IC50 (Cyno IL18-IL18BP): 8.18 µg/mL

— patent US20240425607A1 (published 2024)
